Data reported in paper PMC6614557 (Nature medicine, 2018).

Legend:
[1] = target: T1, ONECUT2 (OC2), OC2-HOX domain (Homo sapiens, UniProt O95948); assay: SPR, His-tagged OC2-HOX immobilized, […] model fit; assay type: binding
T1 sequence (O95948 330-485): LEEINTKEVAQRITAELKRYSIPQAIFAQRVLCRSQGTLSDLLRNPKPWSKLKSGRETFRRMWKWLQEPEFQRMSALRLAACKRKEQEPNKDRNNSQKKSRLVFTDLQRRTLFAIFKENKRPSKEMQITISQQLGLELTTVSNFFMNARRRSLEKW

[2] = target: the molecule itself; assay: SEC
[3] = target: T2, OC2-HOX (ONECUT2 homeodomain construct) (Homo sapiens, UniProt O95948 330-485); assay: SPR
T2 sequence: T1 sequence (O95948 330-485)

Work on `NC(CO)C(=O)N/N=C/c1ccc(O)c(O)c1O` (racemic) [CSRM617, 1-{(E)-[(2,3,4-Trihydroxyphenyl)methylidene]hydrazino}−2-amino-3-hydroxy-1-propanone] yielded a Kd [1] of 7.43 µM.

B1: Recombinant OC2-HOX domain (L330-W485) of OC2 (domain or fragment, human, UniProt O95948 330-485, looked up)
chain: T1 sequence (O95948 330-485)
With B1 the “stoichiometry N” value [2] was 2.

B2: PEG10 promoter OC2 motif probe (dsDNA)
DNA 1: TAGATCGATTTGCA
DNA 2: TGCAAATCGATCTA
For B2, the Kd [3] was roughly 0.001 µM.
